Data on one molecule can be found in paper PMC13398683.

The target in this assay is Endothelin Receptor Type B (human (endogenous in LGG275 and other patient-derived glioma lines)) (UniProt P24530).
Sequence of UniProt P24530 (P24530 27-442): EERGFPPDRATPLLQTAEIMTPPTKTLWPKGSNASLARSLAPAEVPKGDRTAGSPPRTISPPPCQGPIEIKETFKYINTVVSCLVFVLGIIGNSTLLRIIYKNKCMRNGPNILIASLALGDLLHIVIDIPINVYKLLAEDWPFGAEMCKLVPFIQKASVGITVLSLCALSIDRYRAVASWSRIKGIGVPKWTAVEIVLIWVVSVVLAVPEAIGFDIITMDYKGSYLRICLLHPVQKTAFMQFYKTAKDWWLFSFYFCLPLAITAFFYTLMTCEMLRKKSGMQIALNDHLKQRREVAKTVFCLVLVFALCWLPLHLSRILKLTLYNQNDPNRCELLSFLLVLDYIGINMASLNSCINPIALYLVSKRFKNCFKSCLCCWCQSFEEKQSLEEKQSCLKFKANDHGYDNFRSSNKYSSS

For the molecule CTCFTYKDKECVYYCHLDIIW (ligand) [Endothelin 3], the growth of LGG275 cells, dose-response with ET-3 (4 pM-40 nM): lowest concentration with growth inhibition amounted to 0.4 nM.
